Measured values published in the supplement of paper PMC10567573.

B1: SFRS1 (parent)
chain: YSPRRSRGSPRYSPRHSRSRSRT

Variants of: B1
Assay: protein stability index of a GFP-peptide fusion (GPS, HEK-293T) (PSI 1-6); higher = more stable
Details: c terminus: native
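Also: lentivirally expressed fusions sorted by FACS into six bins by GFP to DsRed ratio, PSI derived from sequencing read proportions per bin multiplied by bin number.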

Protein stability index, by site and new letter:
S6: P 4.39; L 2.65; T 4.02; H 3.66; A 4.13; Y 3.29; D 3.83; R 4.01; N 3.97; W 3.43; I 3.22; K 3.01; E 3.26; G 3.55; V 3.09; M 3.56; F 3.27; C 2.81; Q 4.33
R15: M 3.48; N 3.34; E 3.56; G 3.9; F 2.17; V 2.65; P 2.12; L 3; S 3.82; Y 3.06; A 3.36; K 3.98; T 2.58; Q 3.39; H 4.39; D 3.16; I 3.05; C 2.64
Y12: R 4.25; H 3.28; Q 4.43; N 4.21; V 4.18; D 4.38; P 3.99; M 3.62; S 4.17; F 3.7; T 4.27; I 3.72; L 4.03; W 4.43; C 3.61; A 3.89; E 4.47; K 3.73
R20: I 3.69; C 3.49; Q 4.04; H 4.12; N 4.44; P 3.81; A 3.68; T 3.6; F 2.71; M 3.4; K 3.85; W 1.77; G 3.79; L 4.08; D 4.36; V 3.66; Y 2.9; E 4.48; S 4.21
T23: C 3.5; D 3.32; I 4.04; Q 2.61; N 3.17; F 4.22; K 4.73; L 1.96; H 2.64; E 4.56; P 4.23; R 4.22; M 3.33
S13: V 3.37; C 1.35; R 4.11; A 3.41; P 3.55; I 3.71; G 4.41; F 3.59; L 3.89; E 4.01; D 3.72; T 3.63; N 3.64; K 4.64; H 3.62; Y 3.13; M 3.82; Q 3.76; W 2.9
G8: P 3.5; V 3.31; N 3.7; K 3.98; M 3.19; Y 3.05; D 3.45; F 2.13; R 4.58; S 4.32; A 4.22; T 3.79; I 3.46; L 3; E 3.44; Q 3.53; W 2.25; H 3.55; C 2.98
S19: N 4.23; D 3.75; P 4.39; I 3.8; K 3.88; Y 3.96; M 2.9; V 3.73; W 3.76; Q 3.89; C 3.71; L 3.79; T 3.68; F 3.75; A 2.98; R 3.55; G 3.95; E 3.14; H 3.89
R7: K 3.77; H 2.61; W 1.95; M 2.47; G 2.47; T 3.13; L 2.03; F 2.43; V 2.24; Q 3.54; D 3.22; Y 3.38; S 3.4; C 1.95; A 2.97; I 1.66; E 2.15; P 2.91; N 2.92
R22: K 3.77; C 3.62; G 3.27; E 4.25; Y 3.9; W 3.32; M 3.8; L 4.25; V 4.05; A 2.02; Q 4.06; D 3.85; T 3.97; P 4.04; N 3.46; I 3.8; F 3.58; S 3.5; H 4.14
S17: V 3.73; I 4.04; R 4.49; G 3.53; N 3.81; L 3.69; M 4.06; F 4.13; H 3.77; D 3.75; Y 3.6; Q 4; T 4.05; A 4.15; W 3.69; P 4.19; K 4.35; E 3.9; C 4
S9: R 4.37; T 3.74; C 1.83; K 3.83; M 3.07; V 3.8; I 3.1; N 4.23; D 3.99; P 3.86; W 2.29; A 3.94; L 3.38; Q 4.24; G 4.24; Y 3.43; F 3.35; H 3.16; E 3.71
S21: H 3.79; E 3.8; T 3.34; Q 3.62; N 3.98; D 3.79; W 4.19; K 3.79; F 3.95; Y 4; L 3.23; R 4.2; I 3.28; C 3.06; P 4.3; V 3.49; G 2.67; A 3.41; M 3.94
R5: Y 3.01
R11: Q 4.39; T 3.29; L 2.85; Y 2.54; I 2.73; H 3.22; D 2.31; M 3.47; W 1.79; G 3.5; N 3.98; E 2.39; F 2.8; C 2.36; P 3.44; S 3.3; A 3.25; K 3.85; V 3.05
P10: A 4; W 3.4; H 4.38; D 4.25; S 4.35; L 3.61; I 3.41; N 4.31; K 4.4; T 4.51; F 3.07; E 3.6; V 3.69; M 3.73; C 3.45; G 3.37; Q 3; R 4.2; Y 3.67
H16: T 4.27; Y 4.45; I 3.95; Q 4.02; S 4.5; V 3.93; R 4.5; W 3.14; L 4.35; G 4.31; C 3.96; F 3.83; P 4.35; K 4.35; N 4.1; A 4.81; E 3.47; M 3.95; D 4.05
P14: A 4.03; K 4.57; F 3.21; N 4.28; H 4.16; E 4.04; C 1.97; L 3.56; M 3.52; T 3.89; V 4.03; I 4.15; G 4.46; Y 3.64; S 3.54; R 4.48; W 3.22; D 3.46
R18: E 2.44; V 3.68; A 3.64; Y 3.07; W 2.93; C 2.61; M 2.87; T 3.46; N 3.5; K 2.94; D 2.77; Q 3.27; H 3.28; I 3.43; L 3.44; F 2.42; P 2.52; S 2.9; G 3.27
